Series [1] addresses T1, VraR (unphosphorylated) (Staphylococcus aureus) (UniProt Q7A2Q1).
T1 sequence: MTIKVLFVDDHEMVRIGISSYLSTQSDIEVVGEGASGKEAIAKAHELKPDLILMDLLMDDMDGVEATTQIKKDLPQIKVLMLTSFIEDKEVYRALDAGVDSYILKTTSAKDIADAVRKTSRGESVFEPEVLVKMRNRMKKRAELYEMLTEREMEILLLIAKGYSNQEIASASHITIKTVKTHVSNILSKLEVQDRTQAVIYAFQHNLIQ
Nature of the series: DNase I footprinting. The note with it: 10 mM Tris pH 7.5, 50 mM KCl, 1 mM DTT, 10 mM MgCl2, 50% glycerol, 20 ng/ul herring sperm DNA; 2 ng amplicon; protein 0-50 uM; temperature not stated.

Series [2] addresses T2, VraRM13A (unphosphorylated) M13A (Staphylococcus aureus) (UniProt Q7A2Q1).
T2 sequence: T1 sequence with M13A
Nature of the series: DNase I footprinting. Conditions: 10 mM Tris pH 7.5, 50 mM KCl, 1 mM DTT, 10 mM MgCl2, 50% glycerol, 20 ng/ul herring sperm DNA; 2 ng amplicon; protein 0-50 uM; temperature not stated.

Numbering of substitutions follows the chain as printed.

For “TGAAATGACGCATTGATTGTGTTCTTAATTATTATAAAACAGTTCCGAAACCAATATGAATAGGCTCCGGAACTAAATGATGTTCATACTTTAGTCTTAGTATATGTTGAACTATTCTTCTTCAATCTTTGTCGTTAAAATCGGACCAAGCTTCGT (double strand) [PvraSR (-121 to +26)]”, the binding result in series [1] was “binds”; in series [2], “binds more weakly”.

The values above are taken from article PMC6612188.
